What is called EC50 is the midpoint of the concentration-response curve. High values mean a less potent agent, low ones a more potent agent.

Here are results for 1 molecule from US20210332123A1 (SUZHOU KANOVA BIOPHARMACEUTICAL, published 2021).

One test concerns the target T1, mouse IL-25 (mouse, UniProt Q8VHH8 17-169, limits assumed).
T1 construct: In-house production
T1 sequence (looked up): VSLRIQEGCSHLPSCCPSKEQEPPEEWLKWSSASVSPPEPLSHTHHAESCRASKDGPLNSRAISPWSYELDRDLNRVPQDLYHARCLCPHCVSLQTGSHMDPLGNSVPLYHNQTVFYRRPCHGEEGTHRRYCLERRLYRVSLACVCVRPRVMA
Put plainly: ELISA, plate coated with mouse IL-25, OD450, Example 7; unit from the axis lg(nM) [panel Mouse IL-25].

Test [1] deals with T2, human IL-25 (human, UniProt Q9H293 33-177).
T2 construct: ELISA used bought R&D systems #1258-IL-025/CF; Treated as one molecule; also called IL-17E; human IL-17E
T2 sequence (looked up): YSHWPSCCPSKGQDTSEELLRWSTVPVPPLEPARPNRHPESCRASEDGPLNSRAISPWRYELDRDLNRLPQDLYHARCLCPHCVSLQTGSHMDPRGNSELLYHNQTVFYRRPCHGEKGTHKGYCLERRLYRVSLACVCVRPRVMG
The test is described as follows: ELISA, plate coated with human IL-25 (hIl25-HIS), OD450, Example 4; unit from the axis lg(nM) and paragraph 95. As for the experimental part: MaxiSorp 96-well plates (NUNC #449824, www.thermofisher.com) were coated with 2 μg/ml human IL-25 (R&D systems #1258-IL-025/CF) in 1×PBS (50 μl/well). Plates were incubated at 4° C. overnight. Coating solution was removed and plates were washed once with 200 μl/well PBST (1×PBS with 0.05% tween-20). Then 200 μl/well blocking buffer (1×PBS with 0.05% tween-20, 3% BSA) were added and incubated at room temperature for 1 hour. Blocking buffer was removed and plates were washed three times with 200 μl/well PBST (1×PBS with 0.05% tween-20). Anti-IL-25 antibodies (produced in Example 2) were diluted to 10, 3.33, 1.11, 0.37, 0.123, 0.041, 0.0137, 0.0046, 0.0015, 0.00031, 0.000102, 0.000034 μg/ml by 1×PBS and added to plates (50 μl/well). Plates were incubated at room temperature for 2 hours. Antibodies in the wells were removed and plates were washed three times with 200 μl/well PBST (1×PBS with 0.05% tween-20). Goat anti-human IgG (H&L)-HRP secondary antibody (Jackson Immuno Research #109-035-088, www.jacksonimmuno.com) was diluted 1:5000 in 1×PBS and added to each well (50 μl/well). Plates were incubated at room temperature for 1 hour. Secondary antibody was removed and plates were washed seven times with 200 μl/well PBST (1×PBS with 0.05% tween-20) each time. 50 μl/well TMB (eBioscience #85-00-4201-56, www.ebioscience.com) was added and plates were incubated at room temperature for several minutes. Then 50 μl/well 2N H₂SO₄ was added to stop the reaction. Optical density was measured at 450 nm in relation to human IL-25 binding.

The target in test [2] is T2, human IL-25. The test is described as follows: cell-based or functional assay.

B1: VH1-2-VL2-1 (antibody, V domains shown)
VH: QVTLKESGPTLLKPTQTLTLTCTFSGFSLSTSGMGLGWIRQPPGKALEWLAHIWWDDVKHYKPALKSRLTITKDTSKNQVVLTITNVDPVDTATYYCARMGQLHYYGYDYAMDYWGQGTLVTVSS
VL: DIQLTQSPSFLSASVGDRVTITCSASSSVSYMYWYQQKPGKAPKPLIYRTSNLASGVPSRFSGSGSGTEYTLTISSMQPEDFATYYCQLYHSYPPTWTFGQGTKLEIK
notes: also called antibody formed by VH1-2 and VL2-1; copies: 2 + 2
With B1, the EC50 worked out at 0.215 nM with mouse IL-25 and 0.208 nM with human IL-25 [1]. For the same molecule, in the test with human IL-25 [2], the “IC50, CXCL1/GROalpha production of HT-29 cells stimulated by human IL-25 [B]” value amounted to 11.4 nM.
